According to patent US20090068110A1, “ANTIBODIES TO INSULIN-LIKE GROWTH FACTOR RECEPTOR” (Genentech, Inc., priority 2006, published 2009):
“Also recorded” adds a separate entry of the source.

What was measured:
[1] = molecular target: human IGF-1R-ECD (secreted recombinant extracellular domain, amino acids 1-902, tagged with 10 or 12 histidine residues at the carboxyl terminus) (human) (UniProt P08069); assay: BIACORE surface plasmon resonance: IGF-1R immobilized on CM5 chip (about 500 RU), Fab injected 500-3.1 nM, 25 C, 1:1 Langmuir model
MCF7 cells = assay: cell viability assay ([…]-GLO), MCF7; assay type: cell-based, human
Experimental: The different cell lines were cultured in their respective culture media at 37° C. in a humidified atmosphere of 5% CO2. Subsequently, cells were detached from tissue-culture flasks using the cell-dissociation solution, TRIPLE SELECT™ solution (InVitrogen, Carlsbad, Calif., USA), and centrifuged at 1000 rpm for five minutes. Detached cells were washed once with PBS, counted, and seeded in 96-well plates (Corning, N.Y., USA) at 2000 cells per well in 100 μL of culture media. After an overnight incubation at 37° C. in a humidified atmosphere of 5% CO2, the cell-culture medium was replaced with 50 μL of starvation medium consisting of serum-free RPMI 1640™ medium without phenol red. The cells were then starved for five hours in the incubator before addition of 25 μL of each anti-IGF-1R monoclonal antibody at various dilutions in serum-free RPMI 1640™ phenol red-free media. Later, 25 μL of phenol red-free RPMI 1640™ media supplemented with 4% of fetal bovine serum (FBS) (Sigma) with or without 4 ng/ml of human recombinant IGF-I were added on top of the 50 μL of antibody. The cells were then placed at 37° C. with 5% CO2 for 5 to 6 days. At the end of the assay, cell viability was measured using the […]-GLO® kit according to the manufacturer's instructions (Promega, Madison, Wis., USA).
For the cell viability assay, MCF7 cells were seeded onto 96-well plates at 2000 cells/well and incubated overnight at 37° C. in a humidified atmosphere of 5% CO2/95% air in RPMI 1640™ medium supplemented with 10% FBS (Sigma, St. Louis, Mo.) and 1% GLUTAMAX™ reagent (Promega, Madison, Wis.). The next day cells were starved in serum-free RPMI 1640™ medium (phenol red-free) for five hours followed by addition of serially diluted human chimeric versions of 9F2, 2B4, and 10H5, as well as h10H5.vX, for one hour. Subsequently, phenol red-free PRMI 1640™ medium supplemented with FBS or IGF-I was added to reach a final concentration of 1% FBS and 1 ng/mL IGF-I. Cells were then incubated with continuous IGF-1R antibody exposure. After five days, the cell viability was then determined using a […]-GLO™ kit (Promega, Madison, Wis.) according to the manufacturer's instructions.

IGF-1R = IGF-1R (Homo sapiens, UniProt P08069); assay: antibody-induced IGF-1R down-regulation in MCF7 cells, Western blotting; assay type: cell-based; set-up: IGF-1R is normally localized at the plasma membrane of MCF7 cells; endogenous in cells; host or cells: MCF7; conditions: 10 μg/ml, 1, 4, 8 or 24 hours, 10% serum
Experimental: Further exploration of the mechanism of action of anti-IGF-1R antibodies was carried out by testing the ability of the antibodies of the invention, particularly human chimeric antibodies of 2B4, 9F2, 10H5, as well as human phage antibody YW95.6, to induce IGF-1R down-regulation. MCF7 cells were treated with various antibodies (10 μg/ml) for 1, 4, 8, or 24 hours in the presence of 10% serum-containing medium. The cell lysates were harvested, separated by SDS-PAGE, and analyzed for IGF-1R levels by Western blotting using an anti-IGF-1R beta-chain antibody (Cell Signaling Technology, Inc.; Beverly, Mass., USA) or anti-beta-actin antibody.
In a separate experiment, MCF7 cells were treated with serially diluted h10H5, and the cell lysates were analyzed for IGF-1R and IR levels using anti-IGF-1R and anti-IR β-chain antibodies at 1, 2, 4, and 8 hours post-continuous treatment.

human IGF-1R-ECD = molecular target: T1, human IGF-1R-ECD (Homo sapiens, UniProt P08069); assay: phage-competition ELISA (phage IC50); assay type: binding; conditions: for IC50: YW95 phage-derived clones displayed as bivalent Fab-Zip on phage, read-out: phage IC50
T1 construct: containing the extracellular domain (ECD, amino acids 1-902) tagged with 10 or 12 histidine residues at the carboxyl terminus; His10 or His12 (C); made in house; host or cells: CHO cells
Experimental: MAXISORP™ microtiter plates were coated with human IGF-1R-ECD at 5 μg/ml in PBS overnight and then blocked with CASEIN BLOCKER™ reagent (Pierce Biotechnology, Inc.). Phage from culture supernatants were incubated with serially diluted IGF-1R-ECD in PBS with 0.05% TWEEN 20™ surfactant (PBST) containing 1% bovine serum albumin (BSA) in a tissue-culture microtiter plate for 1 hour, after which 80 μl of the mixture was transferred to the target-coated wells for 15 minutes to capture unbound phage. The plate was washed with PBST, and HRP-conjugated anti-M13 (Amersham Pharmacia Biotech) was added (1:5000 in PBST containing 1% BSA) for 40 minutes. The plate was washed with PBST and developed by adding tetramethylbenzidine (TMB) substrate (Kirkegaard and Perry Laboratories, Gaithersburg, Md.). The absorbance at 450 nm was plotted as a function of target concentration in solution to determine an IC50. […] For the humanized hybridoma-derived clones, 2B4, 9F2, and 10H5, phage-Fab was used.
This assay was conducted as described in Section 1-II-A-(4) of this Example. For the YW95-phage-derived clones from the VH/VL phage library, phage-Fab-Zip was used.

B1: murine 10H5 Fab (Fab, V domains shown)
VH: QVQLQQPGAELVKPGASVTLSCKASGYTFTRFWIHWVKQRPGQGLEWIGEINPSNGRTNYNENFKNKATLTVDTSSSTAYMQLSSLTSEVSVVYYCARGGRLDQWGQGTT
VL: DIVMTQSQKFMSTSLGDRVSVTCKASQNVGSNVAWYQQKPGQSPEALIYSASYRYSGVPDRFTGSGSGTDFTLTISNVQSEDLAEYFCHQYNNYPYTFGGGTKVEIKR
B1 was tested, and the Kd [1] was 0.022 µM.

B2: murine 2B4 Fab (Fab, V domains shown)
VH: QIQLVQSGPELKKPGETVKISCKASGYNLANYGLNWVKQAPGEGLKWMGWINTNTGAPTYAEEFKGRFVFFLETSASTAYLQINNLSDEDTATYFCARSIYYYASRYFNVWGAGTS
VL: DIQMTQTTSSLSASLGDKVTISCRASQDISNYLNWYQQKPDGTIKLLIYYTSRLHSGIPSRFSGSGSGTDYSLTISNLEQEDIATYFCQQGNTLPWTFGGGTKVEIKR
B2 showed a Kd [1] of 0.024 µM.

B3: chimeric 2B4: human chimeric version of murine 2B4 (antibody, V domains shown)
VH: QIQLVQSGPELKKPGETVKISCKASGYNLANYGLNWVKQAPGEGLKWMGWINTNTGAPTYAEEFKGRFVFFLETSASTAYLQINNLSDEDTATYFCARSIYYYASRYFNVWGAGTS
VL: DIQMTQTTSSLSASLGDKVTISCRASQDISNYLNWYQQKPDGTIKLLIYYTSRLHSGIPSRFSGSGSGTDYSLTISNLEQEDIATYFCQQGNTLPWTFGGGTKVEIKR
B3 was tested, and the “comparison of inhibitory effect on MCF7 proliferation / viability” value (MCF7 cells; in the presence of IGF-I) was “equivalent at decreasing the MCF7 cell viability” and the IGF-1R down-regulation (IGF-1R) was “rapidly down-regulated and reached maximal reduction by eight hours”.

B4: h2B4.vX: humanized anti-IGF-1R antibody, direct HVR graft of murine 2B4; VL SEQ ID NO:44, VH SEQ ID NO:47 (antibody, V domains shown)
VH: EVQLVESGGGLVQPGGSLRLSCAASGYNLANYGLNWVRQAPGKGLEWVGWINTNTGAPTYAEEFKGRFTISADTSKNTAYLQMNSLRAEDTAVYYCARSIYYYASRYFNVWGQGTL
VL: DIQMTQSPSSLSASVGDRVTITCRASQDISNYLNWYQQKPGKAPKLLIYYTSRLHSGVPSRFSGSGSGTDFTLTISSLQPEDFATYYCQQGNTLPWTFGQGTKVEIKR
modifications: sequence is synthesized
B4 was tested, and the “binding affinity (phage IC50) against IGF-1R-ECD, in words” value (human IGF-1R-ECD; monovalent phage-Fab, after HVR grafting) was “micromolar binding affinity; also recorded: decreased into the micromolar range”.

B5: YW95.3: anti-IGF-1R phage-display clone from VH/VL library; VL SEQ ID NO:66, VH SEQ ID NO:70 (antibody, V domains shown)
VH: EVQLVESGGGLVQPGGSLRLSCAASGFTFSSYAMSWVRQAPGKGLEWVSRISPSGGSTYYADSVKGRFTISADTSKNTAYLQMNSLRAEDTAVYYCAREHYFHWGGMDVWGQGTL
VL: DIQMTQSPSSLSASVGDRVTITCRASQSISSYLAWYQQKPGKAPKLLIYGASSRASGVPSRFSGSGSGTDFTLTISSLQPEDFATYYCQQYYSSPLTFGQGTKVEIKR
modifications: sequence is synthesized
With B5 the IC50 (human IGF-1R-ECD) was 0.02 µM.

B6: YW95.87: anti-IGF-1R phage-display clone from VH/VL library; VL SEQ ID NO:69, VH SEQ ID NO:73 (antibody, V domains shown)
VH: EVQLVESGGGLVQPGGSLRLSCAASGFTFSSYAMSWVRQAPGKGLEWVSRISPSGGSTYYADSVKGRFTISADTSKNTAYLQMNSLRAEDTAVYYCARESYYEWGAMDVWGQGTL
VL: DIQMTQSPSSLSASVGDRVTITCRASQSISSYLAWYQQKPGKAPKLLIYGASSRASGVPSRFSGSGSGTDFTLTISSLQPEDFATYYCQQYYSSPLTFGQGTKVEIKR
modifications: sequence is synthesized
B6 gave an IC50 (human IGF-1R-ECD) of 0.02 µM.

B7: YW95.81: anti-IGF-1R phage-display clone from VH/VL library; VL SEQ ID NO:68, VH SEQ ID NO:72 (antibody, V domains shown)
VH: EVQLVESGGGLVQPGGSLRLSCAASGFSFSSQGISWVRQAPGKGLEWVSTISYDGSTYYADSVKGRFTISADTSKNTAYLQMNSLRAEDTAVYYCARQFMLWGKQFGMDVWGQGTL
VL: DIQMTQSPSSLSASVGDRVTITCRASQSISSYLAWYQQKPGKAPKLLIYGASSRASGVPSRFSGSGSGTDFTLTISSLQPEDFATYYCQQRFSVPFTFGQGTKVEIKR
modifications: sequence is synthesized
B7 was tested, and the IC50 (human IGF-1R-ECD) was 0.02 µM.

B8: YW95.6: human phage antibody clone against IGF-1R; VL SEQ ID NO:67, VH SEQ ID NO:71 (antibody, V domains shown)
VH: EVQLVESGGGLVQPGGSLRLSCAASGFTFSSYAMSWVRQAPGKGLEWVSRISPSGGSTYYADSVKGRFTISADTSKNTAYLQMNSLRAEDTAVYYCAREEYYYWGAMDVWGQGTL
VL: DIQMTQSPSSLSASVGDRVTITCRASQSISSYLAWYQQKPGKAPKLLIYGASSRASGVPSRFSGSGSGTDFTLTISSLQPEDFATYYCQQYYSSPLTFGQGTKVEIKR
modifications: sequence is synthesized
With B8 the IC50 (human IGF-1R-ECD) was 0.02 µM, the “effect on the MCF7 cell viability compared to the media control” value (MCF7 cells; initial screen, 0.12 to 10 μg/ml) was “no effect” and the IGF-1R down-regulation (IGF-1R) was “rapidly down-regulated and reached maximal reduction by eight hours”.
